One substance from article doi:10.1101/2025.11.24.690281 can be followed below.

The target in the test is GST-tagged intracellular c-terminus of LRP6, in vitro phosphorylated with GSK3 and CK1. Description: pull-down.

“Strep-tag-Mena-EVH1-CC (domain or fragment)” displayed a fold increase of the interaction against unphosphorylated GST-LRP6 of 20 fold.
